Reference: publication PMC3626232 (The Journal of biological chemistry, 2000)

T1: XMcm2 (Xenopus (endogenous in Xenopus egg …, UniProt P55861 1-886))
T1 sequence (looked up): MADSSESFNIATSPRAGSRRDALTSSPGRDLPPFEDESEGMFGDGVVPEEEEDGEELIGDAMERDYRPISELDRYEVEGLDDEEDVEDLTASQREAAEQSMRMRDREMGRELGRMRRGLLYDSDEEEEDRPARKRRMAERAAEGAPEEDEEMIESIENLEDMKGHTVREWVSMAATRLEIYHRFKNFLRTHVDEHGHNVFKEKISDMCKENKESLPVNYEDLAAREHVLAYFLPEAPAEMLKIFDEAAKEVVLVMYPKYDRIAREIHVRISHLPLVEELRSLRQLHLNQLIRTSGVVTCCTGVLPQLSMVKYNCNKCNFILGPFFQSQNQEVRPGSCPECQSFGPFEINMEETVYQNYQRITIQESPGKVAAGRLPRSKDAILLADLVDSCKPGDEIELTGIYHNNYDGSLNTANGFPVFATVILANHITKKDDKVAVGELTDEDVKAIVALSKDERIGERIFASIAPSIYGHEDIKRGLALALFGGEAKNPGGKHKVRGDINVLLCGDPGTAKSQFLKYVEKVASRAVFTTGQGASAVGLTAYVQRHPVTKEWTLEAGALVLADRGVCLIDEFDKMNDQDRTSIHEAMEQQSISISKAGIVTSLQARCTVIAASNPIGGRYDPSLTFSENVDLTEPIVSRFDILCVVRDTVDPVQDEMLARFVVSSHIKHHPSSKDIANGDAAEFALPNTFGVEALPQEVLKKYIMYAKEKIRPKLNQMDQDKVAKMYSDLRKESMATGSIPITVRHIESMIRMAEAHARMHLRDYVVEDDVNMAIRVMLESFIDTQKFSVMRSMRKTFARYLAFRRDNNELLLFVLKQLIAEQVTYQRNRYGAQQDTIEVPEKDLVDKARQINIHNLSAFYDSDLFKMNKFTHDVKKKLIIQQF

T2: XMcm3 (Xenopus (endogenous in Xenopus egg …, UniProt P49739 1-807))
T2 sequence (looked up): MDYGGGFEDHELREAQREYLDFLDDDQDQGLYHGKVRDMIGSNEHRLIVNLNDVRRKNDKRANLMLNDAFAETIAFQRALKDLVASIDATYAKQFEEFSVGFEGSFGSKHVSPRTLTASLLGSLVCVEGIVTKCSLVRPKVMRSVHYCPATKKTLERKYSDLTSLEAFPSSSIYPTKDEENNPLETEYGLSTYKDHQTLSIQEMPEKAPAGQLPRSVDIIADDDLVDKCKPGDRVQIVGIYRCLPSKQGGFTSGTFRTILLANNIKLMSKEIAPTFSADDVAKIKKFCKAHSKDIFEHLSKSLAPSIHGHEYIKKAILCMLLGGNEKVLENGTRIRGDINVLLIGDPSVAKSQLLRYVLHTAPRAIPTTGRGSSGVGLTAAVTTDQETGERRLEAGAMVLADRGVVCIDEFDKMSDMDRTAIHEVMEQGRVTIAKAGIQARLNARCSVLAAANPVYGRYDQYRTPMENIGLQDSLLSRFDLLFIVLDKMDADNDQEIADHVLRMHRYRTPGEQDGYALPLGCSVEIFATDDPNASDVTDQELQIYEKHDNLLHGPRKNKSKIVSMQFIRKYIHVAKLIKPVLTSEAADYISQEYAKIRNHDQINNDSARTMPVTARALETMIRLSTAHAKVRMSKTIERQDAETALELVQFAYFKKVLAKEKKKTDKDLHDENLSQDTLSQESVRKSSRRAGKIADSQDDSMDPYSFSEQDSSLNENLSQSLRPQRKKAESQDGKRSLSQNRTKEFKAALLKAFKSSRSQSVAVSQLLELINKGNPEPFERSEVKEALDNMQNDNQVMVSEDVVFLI

B1: XMcm4 (natural protein, UniProt P30664 1-863, looked up)
chain: MSSPTSTPSRRRNKRGRGSNPPTPHGEEVQSPPSQRRRTEDSTSIGELLPMPTSPSGDVQSPSGQELLFSSPAPSRHSAHQSELDLSSPLTYGTPSSRVEGTPRSGIRGTPARQRPDLGSARKVKQVDLHSDQPAAEELVTSEQSLGQKLVIWGTDVNVATCKEKFQRFVQRFIDPSAKEEDNVGLDLNEPIYMQRLEEINVVGDPFLNIDCDHLRNFDQDLYRQLVCYPQEVIPTFDMAANEIFFERYPDSILEHQIQVRPYNALKTRNMRSLNPEDIDQLITISGMVIRTSQIIPEMQEAFFKCQVCAFTTRVEIDRGRIAEPSVCKHCNTTHSMALIHNRSMFSDKQMIKLQESPEDMPAGQTPHTTILYGHNDLVDKVQPGDRVNVTGIYRAVPIRVNPRVRNVKSVYKTHIDVIHYRKTDSKRLHGIDEDTEQKLFTEERVAMLKELAAKPDIYERLAAALAPSIYEHEDIKKGILLQLFGGTRKDFSHTGRGKFRAEVNILLCGDPGTSKSQLLQYVFNLVPRGQYTSGKGSSAVGLTAYVMKDPETRQLVLQTGALVLSDNGICCIDEFDKMNESTRSVLHEVMEQQTLSIAKAGIICQLNARTSVLAAANPVESQWNPKKTTIENIQLPHTLLSRFDLIFLMLDPQDEAYDRRLAHHLVALYYQSEEQMKEEHLDMAVLKDYIAYARTYVNPRLSEEASQALIEAYVSMRKIGSGRGMVSAYPRQLESLIRLSEAHAKVRFSNKVETIDVEEAKRLHREALKQSATDPRTGIVDISILTTGMSATARKRKEELAQVLKKLIQSKGKTPALKYQQLFEDLRGQSDAAITKDMFDEALHALADDDYLTVTGKTVRLL
B2: XMcm5 (natural protein, UniProt P55862 1-735, looked up)
chain: MSGFDDLGVYYSDSFGGEQQVGDDGQAKKSQLKKRFREFLRQYRIGTDRTGFTFKYRDELKRHYNLGEYWIEVEMEDLASFDEDLADYLYKQPTEHLQLLEEAAQEVADEVTRPRPAGEETIQEIQVMLRSDANPANIRSLKSEQMSHLVKIPGIIIAATAVRAKATKISIQCRSCRNTIGNIAVRPGLEGYAMPRKCNTEQAGRPNCPLDPYFIIPDKCKCVDFQTLKLQESPDAVPHGELPRHMQLYCDRYLCDKVVPGNRVTIMGIYSIRKSGKTSTKGRDRVGVGIRSSYIRVVGIQVDTEGTGRSAAGAITPQEEEEFRRLAAKPDIYETVAKSIAPSIYGSSDIKKAIACLLFGGSRKRLPDGLTRRGDVNLLMLGDPGTAKSQLLKFVERCSPIGVYTSGKGSSAAGLTASVMRDPVSRNFIMEGGAMVLADGGVVCIDEFDKMREDDRVAIHEAMEQQTISIAKAGITTTLNSRCSVLAAANSVYGRWDDTKGEENIDFMPTILSRFDMIFIVKDEHNEQRDMTLAKHVMNVHLSARTQSSSVEGEVDLNTLKKYIAYCRAKCGPRLSAEAAEKLKNRYILMRSGAREHERETEKRSSIPITVRQLEAIVRISESLGKMKLQPFATETDVEEALRLFQVSTLDAAMSGSLSGVEGFTTQEDQEMLSRIEKQMKKRFAIGSQVSEHSIIQDFLKQKYPEHAIHKVLSLMMRRGEIQHRLQRKVLYRIK
B3: XMcm7 (natural protein, UniProt Q91876 1-720, looked up)
chain: MPRDYQTEKEKCKTFLQEFYKDDEIGKKHFKYGVQLANIAHREQVALYIDLDDLAEEDPELVDAICENTRRYTNLFADAVQELLPQYKEREVVHKDALDVYIEHRLMMEQRGRDPNEMRDSQNQYPPELMRRFELYFKAPSSSKARVVRDVKADSIGKLVNIRGIVTRVTEVKPMMVVATYTCDQCGAETYQPIQSPTFMPLIMCPSRECQTNRSGGRLYLQTRGSKFIKFQELKIQEHSDQVPVGNIPRCMSVYVRGENTRLAQPGDHVGITGVFLPMLRTGFRQVVQGLLSETYLECHRLVKMNKSEDDELGTEELSEEELRQITEEDFYEKLAASIAPEIYGHEDVKKALLLLLVGGVDNSPRGMKIRGNINICLMGDPGVAKSQLLSYIDRLAPRSQYTTGRGSSGVGLTAAVMKDPVTGEMTLEGGALVLADQGVCCIDEFDKMMDTDRTAIHEVMEQQTISIAKAGIMTTLNARCSILAAANPAYGRYNPKKTVEQNIQLPAALLSRFDVLWLIQDKPDRDNDLRLAQHITYVHQHSKQPPSQFQPLDMKLMRRYITMCKRKQPAIPEALADYLTAAYVEMRKEARTNKDMTFTSARTLLSVLRLSTALARLRLEDVVEKEDVNEAMRLMEMSKDSLLGDKGHTSRTQRPADVIFSTIREMVPEKGARSVKYSEAEQRCVSKGFTPAQFEAALEEYEELNVWLVNQARTKITFV
B4: XMcm6 (natural protein, UniProt Q5FWY4 1-821, looked up)
chain: MELGGPAAAGDTDIAGQQLFKDELSDKCQKLFLEFLEECKGKDGSNLYVSAAEELIRPERNTLAVNFTDIEYYNQQLATTIQEEYYRVYPHLCRAVRSFARQMGNIPANKEFYIAFSDFPARQKIRELSSAKIGTLLRISGQVVRTHPVHPELVSGTFLCMDCQSIVKDVEQQFRYTQPTICKNPVCANRRRFTLDTNKSRFVDFQKVRIQETQAELPRGAIPRSVEIILRAEAVESAMAGDRCDFTGTLIVVPDVSALAAGDARMETGAKVTGGEGFNSEGVQGLKALGVRDLSYRLAFLACYVGATNPRFGGKDLREEDQTAESIKNQMTVQEWEKVFEMSQDKNLYHNLCTSLFPTIHGNDEIKRGVLLMLFGGVPKTTMEGTSLRGDINVCIVGDPSTSKSQFLKHVEEFSPRAVYTSGKASSAAGLTAAVVKDEESHEFVIEAGALMLADNGVCCIDEFDKMDLKDQVAIHEAMEQQTISITKAGVKATLNARTSILAAANPVGGRYERSKSLKHNVNLSAPIMSRFDLFFILVDECNEVTDYAIARRIVDLHARNEESIERVYSIEDIQRYLLFARQFQPKITKEAEEFIVEQYRRLRQRDGSGVAKSSWRITVRQLESLIRLSESMARMHCSDEVQPKHVKEAFRLLSKSIIRVDTPDVSFDQGEDEKNIEGENNGNLNNGEEAMETNQDEPINEKPSSNAGLKMSFAEYKQISNLLVLYMQKMEETEEECHLTTTDLVNWYLKEMEAEIETETELILKKRLIEKVIHRLIYYDHILIELNKSELKTMDDTKETGEDAAEDRILVVNPNYMLED

Columns and labels:
Experiment in all cases: co-purification by chromatography with densitometry
XMcm2 = target: T1, XMcm2
XMcm3 = target: T2, XMcm3
XMcm4 = target: B1

| Binder | stoichiometry N (XMcm2) | stoichiometry N (XMcm3) | binding result (XMcm3) | stoichiometry N (XMcm4) |
| --- | --- | --- | --- | --- |
| B1 | 1.1 XMcm4 per 1.0 XMcm2 | – | – | – |
| B2 | – | 1.2 XMcm5 per 1.0 XMcm3 | – | – |
| B3 | 1.1 XMcm7 per 1.0 XMcm2 | – | binds | 1.1 XMcm7 per 1.0 XMcm4 |
| B4 | 1.1 XMcm6 per 1.0 XMcm2 | – | – | 1 XMcm6 per 1.0 XMcm4 |
